Experimental data as given in the supplement of paper PMC7877785.
± gives the uncertainty stated by the source.

Assay: self-splicing fitness, log relative to wild type (ln ratio); higher = more splicing; Tetrahymena group I intron in knt gene, E. coli kanamycin selection, DiMSum; sequences stand for … in CUCUCU…GGAGGGAAAAGUUAUCAGGCAUGCACCUGGUAGCUAGUCUUUAAACCAAUAGAUUGCAUCGGUUUAAAAGGCAAGACCGUCAAAUUGCGGGAAAGGGGUCAACAGCCGUUCAGUACCAAGUCUCAGGGGAAACUUUGAGAUGGCCUUGCAAAGGGUAUGGUAAUAAGCUGACGGACAUGGUCCUAACCACGCAGCCAAGUCCUAAGUCAACAGAUCUUCUGUUGAUAUGGAUGCAGUUCACAGACUAAAUGUCGGUCGGGGAAGAUGUAUUCUUCUCAUAAGAUAUAGUCGGACCUCUCCUUAAUGGGAGCUAGCGGAUGAAGUGAUGCAACACUGGAGCCGCUGGGAACUAAUUUGUAUGCGAAAGUAUAUUGAUUAGUUUUGGAGUACUCGUGGUCG
Outline: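 Pooled colonies went to amplicon sequencing on an Illumina HiSeq 2500 after six replicate transformations. The plates were LB agar with 100 μg/mL carbenicillin, 50 μM IPTG and 0.2% rhamnose, with or without 25 μg/mL kanamycin, incubated overnight at 37°C or 30°C. The E. coli BL21(DE3) library had all eight P1ex-region intron nucleotides randomised, the intron placed in the knt kanamycin-resistance gene on pET-22b(+). DiMSum fitness is the error-weighted combination of replicate fold changes, kanamycin against none, normalised to wild type.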

| Sequence | self-splicing fitness (ln) (37 °C) | self-splicing fitness (ln) (30 °C) |
| --- | --- | --- |
| AGAGAGCAAUAUUACGUAGG | -2.16 ± 0.43 | – |
| CGCAAGCAAUAUUACGGGUU | -2.7 ± 0.2 | -4.62 ± 0.3 |
| AUGGAGCAAUAUUACGUAAU | -0.189 ± 0.12 | -0.694 ± 0.15 |
| CCCUAGCAAUAUUACGGCGU | -2.35 ± 0.17 | -2.1 ± 0.15 |
| CAACAGCAAUAUUACGUGUG | -2.32 ± 0.11 | -3.55 ± 0.14 |
| ACGUAGCAAUAUUACGUUAU | -2.34 ± 0.16 | -3.76 ± 0.17 |
| GGUUAGCAAUAUUACGGAAC | -0.799 ± 0.46 | -1.48 ± 0.3 |
| GGUAAGCAAUAUUACGGGCU | -0.874 ± 0.12 | -1.76 ± 0.13 |
| CGCGAGCAAUAUUACGCGGA | -2.71 ± 0.31 | -2.15 ± 0.22 |
| GGUGAGCAAUAUUACGGUAG | -2.59 ± 0.33 | -2.67 ± 0.22 |
| GAUAAGCAAUAUUACGUUUC | -2.34 ± 0.2 | -3.88 ± 0.18 |
| AGCCAGCAAUAUUACGGCCC | -0.0646 ± 0.48 | – |
| CGGUAGCAAUAUUACGACAU | -1.38 ± 0.035 | -2.405 ± 0.019 |
| UAUGAGCAAUAUUACGUUAA | -2.59 ± 0.28 | -4.12 ± 0.31 |
| UGCGAGCAAUAUUACGGCGU | -0.48 ± 0.2 | -2.58 ± 0.18 |
| AACUAGCAAUAUUACGGACU | 0.037 ± 0.28 | -1.36 ± 0.24 |
| CAUUAGCAAUAUUACGAGUU | -2.67 ± 0.18 | -3.7 ± 0.17 |
| CGCGAGCAAUAUUACGGAAA | -2.24 ± 0.3 | -2.72 ± 0.26 |
| UCUCAGCAAUAUUACGUGUA | -0.902 ± 0.08 | -1.47 ± 0.089 |
| AUCGAGCAAUAUUACGAGGA | -2.07 ± 0.31 | -1.16 ± 0.4 |
| GAGCAGCAAUAUUACGGCCC | -1.09 ± 0.19 | -1.51 ± 0.15 |
| CACCAGCAAUAUUACGUGCC | -1.27 ± 0.46 | -3.42 ± 0.27 |
| GUCUAGCAAUAUUACGUUCA | 0.35 ± 0.12 | -0.225 ± 0.11 |
| CUCAAGCAAUAUUACGGUAU | -2.08 ± 0.17 | -3.61 ± 0.17 |
| CAUAAGCAAUAUUACGAAUG | -2.32 ± 0.19 | -3.79 ± 0.23 |

| Sequence | self-splicing fitness (ln) (37 °C) | self-splicing fitness (ln) (30 °C) |
| --- | --- | --- |
| CCCGAGCAAUAUUACGUGGG | -2.79 ± 0.19 | -3.97 ± 0.19 |
| GCAGAGCAAUAUUACGACCG | – | -3.12 ± 0.46 |
| UCUCAGCAAUAUUACGCGAG | -0.582 ± 0.15 | -3.73 ± 0.37 |
| AGGAAGCAAUAUUACGCCUA | -0.497 ± 0.14 | -0.554 ± 0.12 |
| ACGAAGCAAUAUUACGUUGU | -1.86 ± 0.12 | -2.95 ± 0.14 |
| CGCUAGCAAUAUUACGGGGG | -2.43 ± 0.16 | -2.53 ± 0.14 |
| AAAAAGCAAUAUUACGCUGU | -1.69 ± 0.11 | -2.69 ± 0.13 |
| GCCCAGCAAUAUUACGUGCG | -1.71 ± 0.17 | -3.42 ± 0.21 |
| CUACAGCAAUAUUACGCAAA | -3.49 ± 0.25 | -3.36 ± 0.24 |
| UCACAGCAAUAUUACGCGGU | -2.63 ± 0.13 | -4.02 ± 0.13 |
| UAAUAGCAAUAUUACGUUAG | -1.13 ± 0.12 | -1.84 ± 0.094 |
| AGCUAGCAAUAUUACGGCUA | -0.754 ± 0.15 | -0.83 ± 0.14 |
| AGUUAGCAAUAUUACGGUGC | -2.44 ± 0.2 | -3.15 ± 0.17 |
| CGACAGCAAUAUUACGAAUC | -2.71 ± 0.34 | -4.11 ± 0.46 |
| UCAGAGCAAUAUUACGUGUA | -2.18 ± 0.19 | -2.57 ± 0.23 |
| ACCGAGCAAUAUUACGGCGA | -0.768 ± 0.12 | -0.182 ± 0.086 |
| CGGUAGCAAUAUUACGAGUU | -3.26 ± 0.27 | -3.87 ± 0.36 |
| AGGAAGCAAUAUUACGAAAC | – | -2.83 ± 0.38 |
| GAAUAGCAAUAUUACGUGGU | -2.74 ± 0.24 | -3.01 ± 0.15 |
| AAAAAGCAAUAUUACGGCAG | -0.434 ± 0.095 | -1.32 ± 0.074 |
| AGACAGCAAUAUUACGAAUC | -3.41 ± 0.47 | – |
| CAGCAGCAAUAUUACGCCAG | 0.0215 ± 0.12 | -0.865 ± 0.089 |
| CACCAGCAAUAUUACGACUA | -1.3 ± 0.17 | -0.763 ± 0.12 |
| GAGAAGCAAUAUUACGUUCA | -0.374 ± 0.22 | -0.919 ± 0.2 |
